Experimental data reported in patent US20240026343A1, “METHOD FOR SCREENING DIMERIZED CYCLIC PEPTIDE” (AJINOMOTO CO., INC., priority 2021, published 2024).

Tests used:
HGF-Erk-SRE pathway = assay: SRE luciferase reporter assay of cell-free translation products from ribosome display DNAs (Example 4); assay type: cell-based; conditions: HEK293E cells with SRE reporter; cell-free translation product at 25- to 625-fold dilution; HGF comparator; FIG. 16
Description: For cell-free translation, to 20 ng of each DNA, 2.5 μL of Solution I, 0.25 μL of Solution II, 0.5 μL of Solution III, and 1.75 μL of water were added, and the mixture was incubated at 37° C. for 6 hours to carry out the translation reaction.
Reporter assays were carried out as follows. To 25 μL of Opti-MEM medium (Thermo Fisher Scientific), 0.6 μL of Attractene Transfection Reagent (QIAGEN) was added and incubated at room temperature for 5 minutes. To the above mixed solution, a mixed solution of 25 μL of Opti-MEM and 1 μL of SRE reporter vector (QIAGEN) was added and incubated at room temperature for 20 minutes. This mixed solution was added to a 96-well plate, HEK293E cells were seeded thereon at 40,000 cells/well, and incubated overnight at 37° C. in a 5% CO2 incubator. After transfection, all the culture supernatant was removed, and 100 μL of Opti-MEM medium (evaluation basal medium), containing 0.5% FBS (Thermo Fisher Scientific), 1% non-essential amino acid solution (Thermo Fisher Scientific), and penicillin-streptomycin (Nacalai Tesque), was added thereto, which was cultured at 37° C. for 4 hours to starve the cells.
To the evaluation basal medium, 0 to 100 ng/mL HGF was added, or the above cell-free expression reaction solution was added at a 25- to 625-fold dilution with respect to the medium, and 100 μL of the evaluation basal medium was added to the cells. The cells were stimulated by culturing overnight at 37° C. in a 5% CO2 incubator.
Dual-Luciferase Reporter Assay System (Promega) was used for signal intensity detection. […] Activation of the HGF-Erk-SRE pathway was quantified by detecting Firefly luciferase luminescence from cell lysates with a plate reader. Subsequently, 50 μL of Glo & Stop reagent solution was added, and after 10 minutes, luminescence of Renilla luciferase, an internal standard, was detected to quantify the cell count. The signal activity of each sample was quantified as SRE activity=(luminescence intensity of Firefly luciferase)/(luminescence intensity of Renilla luciferase). […]

[1] = target: T1, Recombinant Human HGFR/c-MET Fc Chimera Protein (Homo sapiens, UniProt P08581); assay: Ribosome display enrichment on immobilized c-Met (Example 4); assay type: binding; conditions: starting DNA mix 1:50:50 (aMD4dY:TPO:EMP′ fusions); one round; FIGS. 15, 16
T1 construct: purchased R&D systems 8614-MT-100
Description: DNA transcription was carried out using T7 RNA polymerase. T7 RNA polymerase (Takara Bio, 2540A) and rNTPs (Promega, E6000) were used for transcription. 11 μL of ultrapure water, 2 μL of 10×T7 RNA polymerase buffer, 2 μL of 50 mM DTT, 2 μL of 25 mM rNTPs, 1 μL of T7 RNA polymerase, and 1 μL of DNA mix were mixed and reacted in a constant temperature bath at 37° C. for 6 hours. A 50 mM EDTA solution was then added. It was purified with RNA Clean & Concentrator 5 (ZYMO […], R1015) and made into a 2 μM mRNA mix.
PURExpress ΔRF1,2,3 kit was used for translation expression of the prepared library. 2 μL of solution A, 1.5 μL of solution B, 1 μL of mRNA mix, and 0.5 μL of ultrapure water were mixed and cultured in a 37° C. constant temperature bath for 2 hours. After the reaction, the reaction vessel was placed on ice, and 20 μL of ice-cold 1×TBSM-T buffer (50 mM Tris-HCl, 150 mM NaCl, 50 mM MgCl2, 0.05% Tween 20) was added to the formed ribosome-cyclic peptide-leucine zipper fusion-mRNA complex. This complex reaction solution was used in (4-7) below.
Immobilization of target molecules to magnetic beads was carried out. […]

[2] = target: T2, Recombinant Human Erythropoietin R Fc Chimera Protein (Homo sapiens, UniProt P19235); assay: Ribosome display enrichment on immobilized EPO receptor (Example 5); assay type: binding; conditions: starting DNA mix 1:50:50 (EMP:aMD4dY:TPO fusions); one round; FIGS. 17, 18
T2 construct: purchased R&D systems 963-ER-50
Description: The DNA sequence of EMP-Jun-cys-N11-SecM-GS3 was prepared by PCR. Two types of DNA sequences, aMD4dY-Jun-cys-N11-SecM-GS3 and TPO-Jun-cys-N11-SecM-GS3, prepared in Example 4 were used. A DNA mix was prepared by mixing DNAs, EMP-Jun-cys-N11-SecM-GS3, aMD4dY-Jun-cys-N11-SecM-GS3, and TPO-Jun-cys-N11-SecM-GS3, at a ratio of 1:50:50.
DNA transcription was carried out using T7 RNA polymerase. T7 RNA polymerase (Takara Bio, 2540A) and rNTPs (Promega, E6000) as well were used for transcription. 11 μL of ultrapure water, 2 μL of 10×T7 RNA polymerase buffer, 2 μL of 50 mM DTT, 2 μL of 25 mM rNTPs, 1 μL of T7 RNA polymerase, and 1 μL of DNA mix were mixed and reacted in a constant temperature bath at 37° C. for 6 hours. A 50 mM EDTA solution was then added. It was purified with RNA Clean & Concentrator 5 (ZYMO […], R1015) and made into a 2 μM mRNA mix.
PURExpress ΔRF1,2,3 kit was used for translation expression of the prepared library. 2 μL of solution A, 1.5 μL of solution B, 1 μL of mRNA mix, and 0.5 μL of ultrapure water were mixed and cultured in a 37° C. constant temperature bath for 2 hours. […]
Three types of DNAs, EMP-Jun-cys-N11-SecM-GS3, aMD4dY-Jun-cys-N11-SecM-GS3, and TPO-Jun-cys-N11-SecM-GS3, along with DNA mix and DNA mix2 were evaluated with 2100 Bioanalyzer (Agilent technologies). […]

EpoR = EpoR (Homo sapiens, UniProt P19235); assay: PathHunter eXpress EpoR-JAK2 Functional Assay of EMP-leucine zipper fusion dimer (Example 3); assay type: cell-based; conditions: diluted cell-free expression reaction solution; 3 hours stimulation; No DNA negative control; FIG. 14
Description: The ability of the EMP-leucine zipper fusion dimer to activate EpoR was assessed using PathHunter® eXpress EpoR-JAK2 Functional Assay Kit (DiscoveRx).
Cells for EPO activity evaluation contained in the PathHunter® eXpress EpoR-JAK2 Functional Assay Kit were seeded in a 96-well plate and cultured for 24 hours at 37° C. under 5% CO2. A cell-free expression reaction solution containing the EMP-leucine zipper fusion were diluted and added to the cells. […] To the cells stimulated at room temperature for 3 hours, the prepared Substrate Reagent was added and incubated for 60 minutes. Chemiluminescence intensity was quantified with a Nivo plate reader (Perkin Elmer).

EpoR, sequence (P19235 25-508): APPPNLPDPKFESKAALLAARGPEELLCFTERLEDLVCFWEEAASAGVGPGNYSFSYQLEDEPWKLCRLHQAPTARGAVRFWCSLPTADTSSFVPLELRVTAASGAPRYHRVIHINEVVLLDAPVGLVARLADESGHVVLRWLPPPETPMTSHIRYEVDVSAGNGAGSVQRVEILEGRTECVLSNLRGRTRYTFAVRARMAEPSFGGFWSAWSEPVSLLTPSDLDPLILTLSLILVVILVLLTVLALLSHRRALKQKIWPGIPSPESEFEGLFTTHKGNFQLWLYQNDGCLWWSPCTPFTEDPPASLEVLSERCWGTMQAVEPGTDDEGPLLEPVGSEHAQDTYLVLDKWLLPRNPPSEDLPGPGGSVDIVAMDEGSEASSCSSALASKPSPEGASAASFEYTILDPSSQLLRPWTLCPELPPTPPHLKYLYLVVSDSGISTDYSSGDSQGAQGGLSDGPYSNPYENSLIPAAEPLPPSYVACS
EpoR, sequence (O60674 whole entry partner, the tested form may be a part): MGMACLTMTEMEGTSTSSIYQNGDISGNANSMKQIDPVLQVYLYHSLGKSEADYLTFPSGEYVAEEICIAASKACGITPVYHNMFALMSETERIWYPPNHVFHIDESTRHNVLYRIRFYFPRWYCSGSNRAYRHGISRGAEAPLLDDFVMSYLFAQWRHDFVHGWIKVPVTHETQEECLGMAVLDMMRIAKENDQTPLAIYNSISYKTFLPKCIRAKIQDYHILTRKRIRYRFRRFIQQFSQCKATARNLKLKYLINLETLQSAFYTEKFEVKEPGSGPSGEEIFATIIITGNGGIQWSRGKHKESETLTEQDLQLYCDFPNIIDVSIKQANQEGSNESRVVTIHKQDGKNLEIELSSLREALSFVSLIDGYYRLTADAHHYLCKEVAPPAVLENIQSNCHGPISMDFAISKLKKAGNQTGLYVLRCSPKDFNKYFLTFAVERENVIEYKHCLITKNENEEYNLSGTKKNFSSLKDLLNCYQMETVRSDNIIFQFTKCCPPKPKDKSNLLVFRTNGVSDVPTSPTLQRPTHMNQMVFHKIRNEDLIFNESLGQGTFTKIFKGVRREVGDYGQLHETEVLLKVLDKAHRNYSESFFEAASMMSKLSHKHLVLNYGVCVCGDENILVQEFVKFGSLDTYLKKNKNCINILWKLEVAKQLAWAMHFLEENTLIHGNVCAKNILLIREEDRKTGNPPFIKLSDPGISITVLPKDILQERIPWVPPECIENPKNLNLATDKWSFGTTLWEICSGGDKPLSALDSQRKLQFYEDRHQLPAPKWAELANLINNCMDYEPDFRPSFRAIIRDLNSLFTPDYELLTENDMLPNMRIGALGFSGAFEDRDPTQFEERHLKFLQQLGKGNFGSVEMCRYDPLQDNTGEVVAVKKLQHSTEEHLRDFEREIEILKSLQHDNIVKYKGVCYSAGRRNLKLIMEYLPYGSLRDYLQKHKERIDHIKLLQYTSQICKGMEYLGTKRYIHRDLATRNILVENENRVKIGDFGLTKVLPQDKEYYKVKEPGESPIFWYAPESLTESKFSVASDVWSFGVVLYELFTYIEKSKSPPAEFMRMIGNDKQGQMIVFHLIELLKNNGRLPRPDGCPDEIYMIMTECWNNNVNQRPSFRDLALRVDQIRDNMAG
T2 sequence (P19235 with tags, fused parts or gaps limits assumed): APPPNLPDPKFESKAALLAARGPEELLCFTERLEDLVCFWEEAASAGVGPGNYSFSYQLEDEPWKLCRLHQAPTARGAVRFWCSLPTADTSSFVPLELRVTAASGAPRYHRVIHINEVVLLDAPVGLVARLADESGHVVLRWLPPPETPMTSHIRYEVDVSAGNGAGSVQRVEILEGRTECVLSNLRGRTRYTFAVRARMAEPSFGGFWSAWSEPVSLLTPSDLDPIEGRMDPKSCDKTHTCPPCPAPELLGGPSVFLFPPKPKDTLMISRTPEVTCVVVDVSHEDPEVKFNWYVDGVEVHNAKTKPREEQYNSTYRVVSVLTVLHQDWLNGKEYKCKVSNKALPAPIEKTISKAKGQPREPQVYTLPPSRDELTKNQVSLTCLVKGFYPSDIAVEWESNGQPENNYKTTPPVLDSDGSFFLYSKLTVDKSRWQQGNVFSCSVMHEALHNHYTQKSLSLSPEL
T1 sequence (P08581 with tags, fused parts or gaps limits assumed): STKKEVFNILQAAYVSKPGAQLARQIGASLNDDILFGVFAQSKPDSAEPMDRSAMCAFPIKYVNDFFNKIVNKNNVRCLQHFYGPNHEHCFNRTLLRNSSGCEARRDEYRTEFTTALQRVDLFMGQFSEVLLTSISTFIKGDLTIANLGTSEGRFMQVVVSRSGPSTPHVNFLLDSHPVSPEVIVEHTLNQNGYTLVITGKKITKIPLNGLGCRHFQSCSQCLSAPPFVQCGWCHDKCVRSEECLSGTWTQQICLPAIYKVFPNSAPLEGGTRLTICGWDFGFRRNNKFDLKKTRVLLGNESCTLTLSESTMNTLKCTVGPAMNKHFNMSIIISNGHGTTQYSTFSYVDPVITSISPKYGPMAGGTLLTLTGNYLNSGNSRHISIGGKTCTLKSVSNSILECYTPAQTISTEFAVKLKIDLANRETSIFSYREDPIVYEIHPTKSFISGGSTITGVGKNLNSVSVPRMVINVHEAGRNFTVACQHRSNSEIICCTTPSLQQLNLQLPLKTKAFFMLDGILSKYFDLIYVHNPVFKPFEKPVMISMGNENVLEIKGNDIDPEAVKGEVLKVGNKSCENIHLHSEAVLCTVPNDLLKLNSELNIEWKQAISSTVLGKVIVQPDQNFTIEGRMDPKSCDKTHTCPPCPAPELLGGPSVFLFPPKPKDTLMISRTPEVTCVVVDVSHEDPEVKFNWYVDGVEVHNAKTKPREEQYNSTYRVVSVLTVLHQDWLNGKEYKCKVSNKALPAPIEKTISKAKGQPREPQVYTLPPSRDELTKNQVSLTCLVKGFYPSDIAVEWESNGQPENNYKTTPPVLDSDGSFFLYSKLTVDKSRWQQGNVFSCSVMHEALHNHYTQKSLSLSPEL
T1 sequence (P08581 25-307 limits assumed, change not shown): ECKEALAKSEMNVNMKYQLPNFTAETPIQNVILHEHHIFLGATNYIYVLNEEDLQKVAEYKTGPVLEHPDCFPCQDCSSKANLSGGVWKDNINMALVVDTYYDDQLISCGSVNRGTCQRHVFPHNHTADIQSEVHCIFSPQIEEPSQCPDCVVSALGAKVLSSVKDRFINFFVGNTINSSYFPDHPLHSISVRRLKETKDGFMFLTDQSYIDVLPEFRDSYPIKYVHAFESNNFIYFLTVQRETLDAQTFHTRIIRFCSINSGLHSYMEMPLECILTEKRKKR

B1: aMD4dY-Jun-cys-N11-SecM-GS3: c-Met binding cyclic peptide-leucine zipper fusion for ribosome display, SEQ ID NO: 71 (protein)
chain: MAETCRQFNRRTHEVWNLDCGAAPAAPAPAAGGRIARLEEKVKTLKAQNSELASTANMLREQVAQLKQKVMNGCGGKDHLIHNHHKHEHAHAEHLFSTPVWISQAQGIRAGGSGSGS
modifications: aMD4dY-Jun-cys-N11-SecM-GS3; DISULFID 5..20 Disulfide bridge between Cys-5 and Cys-20
In the case of B1, the “relative SRE reporter activity (relative receptor activity)” value (HGF-Erk-SRE pathway) is reported as “showed activity” and the “enrichment in DNA mix2 after ribosome display against c-Met” value [1] is reported as “enriched”.

B2: EMP-Jun-cys-N11-SecM-GS3: EMP-leucine zipper fusion for ribosome display, SEQ ID NO: 87 (protein)
chain: MAETGGLYACHMGPMTWVCQPLRGAAPAAPAPAAGGRIARLEEKVKTLKAQNSELASTANMLREQVAQLKQKVMNGCGGKDHLIHNHHKHEHAHAEHLFSTPVWISQAQGIRAGGSGSGS
modifications: EMP-Jun-cys-N11-SecM-GS3; DISULFID 10..19 Disulfide bridge between Cys-10 and Cys-19
With B2 the “enrichment in DNA mix2 after ribosome display against EPO receptor” value [2] was “enriched”.

B3: EMP-PA8-cys-Jun: EMP-leucine zipper fusion, SEQ ID NO: 67 (protein)
chain: MGGLYACHMGPMTWVCQPLRGAAPAAPAPAAGCGGRIARLEEKVKTLKAQNSELASTANMLREQVAQLKQKVMN
modifications: EMP-PA8-cys-Jun; DISULFID 7..16 Disulfide bridge between Cys-7 and Cys-16
For B3, the “ability to activate EpoR (relative receptor activity, chemiluminescence)” value (EpoR) was “activated EpoR”.
